# Changes are numbered by the printed parent chain. Where two headings read alike, the source gives them in different places.
# B1: TAATGG (common Q50) monomer site 15mer (dsDNA)
# DNA 1: TGAGCTAATGGAAGC
# DNA 2: AGCTTCCATTAGCTC
# B2: TAATTA consensus monomer site 15mer (dsDNA)
# DNA 1: TGAGCTAATTAAAGC
# DNA 2: AGCTTTAATTAGCTC
# B3: 8bpS dimer probe (dsDNA)
# DNA 1: TCCAACTAATTAAAGATTTAATTCGTAGTGCGGGCGTGGCT
# DNA 2: CGAATTAAATCTTTAATTAGTTGGA
# DNA 3: AGCCACGCCCGCACTA
# B4: 7bpS dimer probe (= AAATT spacer probe) (dsDNA)
# DNA 1: TCCAACTAATTAAAATTTAATTCGTAGTGCGGGCGTGGCT
# DNA 2: CGAATTAAATTTTAATTAGTTGGA
# DNA 3: AGCCACGCCCGCACTA
# B5: GCCGG spacer dimer probe (dsDNA)
# DNA 1: B4 DNA 1 with A13G, A14C, A15C, T16G, T17G
# DNA 2: CGAATTACCGGCTAATTAGTTGGA
# DNA 3: AGCCACGCCCGCACTA
# B6: GCGGG spacer dimer probe (dsDNA)
# DNA 1: B4 DNA 1 with A13G, A14C, A15G, T16G, T17G
# DNA 2: CGAATTACCCGCTAATTAGTTGGA
# DNA 3: AGCCACGCCCGCACTA
# B7: AATTT spacer dimer probe (dsDNA)
# DNA 1: B4 DNA 1 with A15T
# DNA 2: CGAATTAAAATTTAATTAGTTGGA
# DNA 3: AGCCACGCCCGCACTA
# B8: ATATT spacer dimer probe (dsDNA)
# DNA 1: B4 DNA 1 with A14T
# DNA 2: CGAATTAAATATTAATTAGTTGGA
# DNA 3: AGCCACGCCCGCACTA
# B9: GGGCC spacer dimer probe (dsDNA)
# DNA 1: B4 DNA 1 with A13G, A14G, A15G, T16C, T17C
# DNA 2: CGAATTAGGCCCTAATTAGTTGGA
# DNA 3: AGCCACGCCCGCACTA
# Key:
# Gsx2 167-305 [1] = target: T1, Gsx2 167-305 (Mus musculus, UniProt P31316 167-305); test: ITC
# Gsx2HD = Gsx2HD (Mus musculus, UniProt P31316 203-264); test: ITC
# Gsx2HD I234E = Gsx2HD I234E (Mus musculus, UniProt P31316 203-264, I234E); test: ITC
# Gsx2HD L231E [2] = target: T2, Gsx2HD L231E (Mus musculus, UniProt P31316 203-264, L231E); test: EMSA
# Gsx2HD L216E [3] = target: T3, Gsx2HD L216E (Mus musculus, UniProt P31316 203-264, L216E); test: EMSA
# Gsx2HD S212E [4] = target: T4, Gsx2HD S212E (Mus musculus, UniProt P31316 203-264, S212E); test: EMSA
# Gsx2HD L231E [5] = target: T2, Gsx2HD L231E; test: EMSA; remark: listed apart in the source
# Gsx2HD L216E [6] = target: T3, Gsx2HD L216E; test: EMSA; remark: listed apart in the source
# Gsx2HD S212E [7] = target: T4, Gsx2HD S212E; test: EMSA; remark: listed apart in the source
# Gsx2 167-305 [8] = target: T1, Gsx2 167-305; test: EMSA
# Gsx2 167-305 [9] = target: T1, Gsx2 167-305; test: EMSA; remark: listed apart in the source
# T1 sequence (P31316 167-305): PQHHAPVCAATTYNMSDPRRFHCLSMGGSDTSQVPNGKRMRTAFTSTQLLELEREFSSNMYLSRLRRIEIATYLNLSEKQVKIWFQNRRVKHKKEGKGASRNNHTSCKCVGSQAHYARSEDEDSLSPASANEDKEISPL
# T4 sequence (P31316 203-264 S212E): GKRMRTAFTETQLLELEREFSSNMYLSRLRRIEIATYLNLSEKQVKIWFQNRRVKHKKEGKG
# T2 sequence (P31316 203-264 L231E): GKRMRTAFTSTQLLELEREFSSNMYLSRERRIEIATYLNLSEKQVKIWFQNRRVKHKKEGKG
# T3 sequence (P31316 203-264 L216E): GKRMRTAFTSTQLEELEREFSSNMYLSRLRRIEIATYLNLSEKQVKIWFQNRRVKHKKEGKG
# Gsx2HD I234E, sequence (P31316 203-264 I234E): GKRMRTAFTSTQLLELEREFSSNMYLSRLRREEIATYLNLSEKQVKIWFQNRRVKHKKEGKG
# Gsx2HD, sequence (P31316 203-264): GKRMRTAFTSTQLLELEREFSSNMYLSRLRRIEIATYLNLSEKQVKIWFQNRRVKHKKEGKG
binder,measurement,setting,value
B1,Kd,Gsx2 167-305 [1],143 nM
same,Kd,Gsx2HD,36 nM
B2,Kd,Gsx2HD I234E,20 nM
B3,binding result,Gsx2HD L231E [2],binds
same,binding result,Gsx2HD L216E [3],binds
same,binding result,Gsx2HD S212E [4],binds
B4,binding result,Gsx2HD L231E [5],binds
same,binding result,Gsx2HD L216E [6],binds
same,binding result,Gsx2HD S212E [7],binds
B5,binding result,Gsx2 167-305 [8],binds
B6,binding result,Gsx2 167-305 [8],binds
B7,binding result,Gsx2 167-305 [9],binds
B8,binding result,Gsx2 167-305 [9],binds
B9,binding result,Gsx2 167-305 [8],binds

# Source: article PMC10723402
